From paper doi:10.1101/2021.05.01.442282 (bioRxiv, 2021)

Target: monomeric recombinant human ASC (Apoptosis-associated speck-like protein containing a caspase recruitment … (human, UniProt Q9ULZ3 1-195))
Assay: limited proteolysis-coupled mass spectrometry

monomeric recombinant human ASC (Apoptosis-associated speck-like protein containing a caspase recruitment …, sequence (Q9ULZ3 whole entry): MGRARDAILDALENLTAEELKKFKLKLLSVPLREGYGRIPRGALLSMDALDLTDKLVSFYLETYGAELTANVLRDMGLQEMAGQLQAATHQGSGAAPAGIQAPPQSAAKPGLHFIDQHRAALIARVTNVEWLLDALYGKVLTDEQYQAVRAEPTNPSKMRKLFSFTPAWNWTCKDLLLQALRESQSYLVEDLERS

B1: monomeric recombinant human SAA1 (serum amyloid A1) (natural protein, UniProt P0DJI8 19-122, looked up)
chain: RSFFSFLGEAFDGARDMWRAYSDMREANYIGSDKYFHARGNYDAAKRGPGGAWAAEVITDARENIQRFFGHGAEDSLADQAANEWGRSGKDPNHFRPAGLPEKY
**Q.** Does B1 bind?
**A.** Result: binds
